Results from patent US20240091321A1.
Changes are numbered by the printed parent chain. One block for each binder: values may come before it.

Key:
CI-MPR receptor [1] = test: CIMPR binding assay, PPT1 conditioned media, dilution starting at 50 nM, bound PPT1 activity; the table prints no units, units of the axes
CI-MPR receptor [2] = test: CIMPR binding assay, PPT1 conditioned media, curves starting at 25 nM, bound PPT1 activity; the table prints no units, units of the axes

Bmax (CI-MPR receptor [1]): 73.5 nmol/mL/h
Kd (CI-MPR receptor [1]): 4.45 nM
Bmax (CI-MPR receptor [2]): 73.5 nmol/mL/h
Kd (CI-MPR receptor [2]): 4.45 nM
B1: PPT1-105 (enzyme, part only; not given: linker identity, part only)
fusion protein, part: SRALQHLDPPAPLPLVIWHGMGDSCCNPLSMGAIKKMVEKKIPGIYVLSLEIGKTLMEDVENSFFLNVNSQVTTVCQALAKDPKLQQGYNAMGFSQGGQFLRAVAQRCPSPPMINLISVGGQHQGVFGLPRCPGESSHICDFIRKTLNAGAYSKVVQERLVQAEYWHDPIKEDVYRNHSIFLADINQERGINESYKKNLMALKKFVMVKFLNDSIVDPVDSEWFGFYRSGQAKETIPLQETSLYTQDRLGLKEMDNAGQLVFLATEGDHLQLSEEWFYAHIIPFLGRPRAVPTQSRTLCGGELVDTLQFVCGDRGFLFSRGGGGSRGILEECCFRDCDLALLETYCATPARSE

Bmax (CI-MPR receptor [1]): 91.4 nmol/mL/h
Kd (CI-MPR receptor [1]): 5.46 nM
Bmax (CI-MPR receptor [2]): 91.4 nmol/mL/h
Kd (CI-MPR receptor [2]): 5.46 nM
B2: PPT1-106 (enzyme, part only; not given: linker identity, part only)
fusion protein, part: B1 fusion protein, part with D336E
